{
  "source": "patent US11643670B2",
  "about": "“Methods of enhancing chromosomal homologous recombination” (Massachusetts Institute of Technology, priority 2018, dated 2023)",
  "key": {"Chd2 locus": {"system": "Chd2 locus", "experiment": "Chd2^R1684H knock-in by pronuclear injection of Cas9/crRNA/tracrRNA and ssODN, genotyping of cultured embryos", "type": "cell-based, mouse", "procedure": "(§1) tracrRNA, crRNAs, and ssODNs were synthesized by Integrated DNA Technologies (TABLE 1). All injection mixtures were prepared in a final volume of 50 μL according to the following methodology: Using RNase-free water, reagents, and consumables, crRNA (final concentration 0.61 μM), tracrRNA (final concentration 0.61 μM), and ultrapure Tris-HCl, pH 7.39 (final concentration 10 mM, ThermoFisher) were mixed and incubated at 95° C. for 5 minutes. The mixtures were cooled to room temperature for 10 minutes on the benchtop, and then, EnGen Cas9-NLS S. pyogenes (New England Biolabs) was added to a final concentration of 30 ng/μL. The mixtures were incubated at 37° C. for 15 minutes before adding any remaining components: ssODN (final concentration 3 ng/μL or 30 ng/μL), RAD51 (Creative Biomart, final concentration 10 ng/μL). Injection mixtures were stored on ice and briefly heated to 37° C. prior to injection. For experiments utilizing RS-1, embryos were cultured in KSOM-AA (EMD Millipore MR-121-D) with […] RS-1 (Sigma) dissolved in DMSO or DMSO (Sigma, 1:1000) for 24 hours, washed, and cultured in EmbryoMax FHM HEPES Buffered Medium (Sigma) until collection for genotyping.\nFemale mice (4-5 weeks old, C57BL/6N) were superovulated by IP injection of PMS (5 IU/mouse, three days prior to microinjection) and hCG (5 IU/mouse, 47 hours after PMS injection) and then paired with males. […]"}, "maternal Chd2 locus": {"system": "maternal Chd2 locus", "experiment": "Donor-free interchromosomal homologous recombination (ICHR) in IVF-derived Chd2^R1684H/+ embryos", "type": "cell-based, mouse", "procedure": "as §1\nFor experiments using wildtype recombinant proteins, the following proteins were used: RAD51 (Creative Biomart RAD51-134H), USP1/WDR48 (Creative Biomart USP1&WDR48-1067H), BCCIP (Origene TP303061), XRCC1 (TP304952), XRCC4 (Origene TP312684), DMC1 (Origene TP318311). For experiments using mutant RAD51, custom RAD51 preparations were produced by Creative Biomart according to their standard protocol for producing the wildtype RAD51 used in all other experiments. Mutant DNA sequences used for cloning are described in TABLE 2. All RAD51 mutants were modeled in human RAD51 transcript variant 4 (NCBI accession NM_001164269), as this is the transcript variant of the wildtype RAD51-134H protein used in all other experiments.\nIn vitro fertilization was performed using FERTIUP® Mouse Preincubation Medium and CARD MEDIA (Kyudo Company) according to the manufacturer's protocol. Non-virgin Chd2^R1684H/R1684H males that were >8 weeks old were used as sperm donors. Following IVF, embryos were cultured for 8 hours and then injected using the PNI protocol described below.\nFor all experiments except those described in FIG. 6, the male pronucleus was injected. Injections performed for the CPI portion of FIG. 6 were targeted to the cytoplasm. All microinjections were performed using a Narishige Micromanipulator, Nikon Eclipse TE2000-S microscope, and Eppendorf 5242 microinjector. Individual zygotes were injected with 1-2 pL of injection mixture using an “automatic” injection mode set according to needle size and adjusted for clear increase in pronuclear volume. Following injections, cells were cultured in KSOM-AA until collection for genotyping. For experiments giving rise to F0 animals, embryos were surgically implanted into pseudopregnant CD-1 females (Charles River Laboratories, Strain Code 022) 24-hours post-injection and allowed to develop normally until natural birth.\nEmbryos were collected at morula-to-blastocyst stage in 4 μL nuclease-free water. After collection, 4 μL of 2× embryo digestion buffer was added to each sample (final concentrations: 125 μg/mL proteinase K, 100 mM Tris-HCl pH 8.0, 100 mM KCl, 0.02% gelatin, 0.45% Tween-20, 60 μg/mL yeast tRNA) and embryos were lysed for 1 hour at 56° C. Proteinase K was inactivated via incubation at 95° C. for 10 minutes and DNA was stored at −20° C. until use.\nChd2^R1684H genotyping was performed via a two-step, nested approach. Except for experiments described in FIGS. 3A-3G, all 8 μL of embryo DNA were used as input for the initial, long round of PCR. Genotyping of mouse pups and adult animals was performed using 2 μL of purified tail DNA. For all embryo genotyping, reactions mixtures were set up in a UV-sterilized laminar flow hood using sterile reagents and filter tips to avoid contamination. […]"}},
  "data": [
    {"molecule": "RAD51: recombinant human strand exchange protein RAD51 (Creative Biomart RAD51-134H), transcript variant 4 (protein, UniProt Q06609 2-339, looked up) DNA repair protein RAD51 …: AMQMQLEANADTSVEEESFGPQPISRLEQCGINANDVKKLEEAGFHTVEAVAYAPKKELINIKGISEAKADKILAEAAKLVPMGFTTATEFHQRRSEIIQITTGSKELDKLLQGGIETGSITEMFGEFRTGKTQICHTLAVTCQLPIDRGGGEGKAMYIDTEGTFRPERLLAVAERYGLSGSDVLDNVAYARAFNTDHQTQLLYQASAMMVESRYALLIVDSATALYRTDYSGRGELSARQMHLARFLRMLLRLADEFGVAVVITNQVVAQVDGAAMFAADPKKPIGGNIIAHASTTRLYLRKGRGETRICKIYDSPCLPEAEAMFAINADGVGDAKD", "values": [
      {"measurement": "homozygous KI rate relative to injection without RAD51", "setting": "Chd2 locus", "value": "more than doubled"},
      {"measurement": "ICHR observed, share of injected embryos", "setting": "maternal Chd2 locus; PNI at ~8 hpf of Cas9/crRNA/tracrRNA, no donor, 26% in control injected embryos", "value": 74, "unit": "%"},
      {"measurement": "indel-to-ICHR ratio", "setting": "maternal Chd2 locus; compared to control embryos", "value": "drastic decrease"},
      {"measurement": "overall indel rate", "setting": "maternal Chd2 locus; compared to control embryos", "value": "drastic decrease"}
    ]}
  ]
}
